Reference: PMC3675491 (Nucleic Acids Research, 2013)

Columns and labels:
[1] = target: T1, His6-σ^HrdB σ2 fragment (amino acids 211–347) (S. coelicolor, UniProt P18183 211-347); experiment: […]
T1 sequence: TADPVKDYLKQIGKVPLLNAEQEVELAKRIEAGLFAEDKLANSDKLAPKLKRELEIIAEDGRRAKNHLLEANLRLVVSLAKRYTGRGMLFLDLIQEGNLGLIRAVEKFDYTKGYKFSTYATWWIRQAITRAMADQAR

[2] = target: T2, His6-σ^HrdB σ2–σ4 fragment (amino acids 211–511) (S. coelicolor, UniProt P18183 211-511); experiment: […]
T2 sequence: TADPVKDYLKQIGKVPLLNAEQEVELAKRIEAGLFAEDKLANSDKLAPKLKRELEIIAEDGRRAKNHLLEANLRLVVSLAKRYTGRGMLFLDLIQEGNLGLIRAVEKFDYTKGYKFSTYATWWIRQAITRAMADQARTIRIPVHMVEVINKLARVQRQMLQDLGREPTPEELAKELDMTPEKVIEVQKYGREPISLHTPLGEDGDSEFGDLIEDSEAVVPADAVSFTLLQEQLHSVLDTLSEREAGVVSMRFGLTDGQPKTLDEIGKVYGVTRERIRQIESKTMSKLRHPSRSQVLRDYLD

[3] = target: T3, σ^HrdB (purified protein, 55.9 kDa) (S. coelicolor, UniProt P18183 1-511); experiment: SEC
T3 sequence: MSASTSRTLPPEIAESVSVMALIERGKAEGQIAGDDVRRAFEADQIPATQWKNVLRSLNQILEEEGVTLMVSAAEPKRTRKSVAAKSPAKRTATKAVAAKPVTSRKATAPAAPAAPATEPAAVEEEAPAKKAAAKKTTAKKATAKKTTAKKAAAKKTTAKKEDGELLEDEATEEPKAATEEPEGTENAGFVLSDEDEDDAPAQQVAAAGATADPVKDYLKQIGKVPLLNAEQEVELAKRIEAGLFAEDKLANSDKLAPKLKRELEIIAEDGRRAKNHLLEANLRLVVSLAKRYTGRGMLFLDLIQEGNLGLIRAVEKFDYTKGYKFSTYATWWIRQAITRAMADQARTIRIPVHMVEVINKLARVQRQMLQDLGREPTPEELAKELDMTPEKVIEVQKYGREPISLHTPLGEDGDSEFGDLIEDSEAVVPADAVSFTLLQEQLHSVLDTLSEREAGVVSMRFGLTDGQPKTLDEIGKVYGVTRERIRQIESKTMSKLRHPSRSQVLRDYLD

[4] = target: the molecule itself; experiment: SEC

B1: RbpA^Sc (native, untagged purified protein, 14.1 kDa) (natural protein)
chain: MSERALRGTRLVVTSYETDRGIDLAPRQAVEYACEKGHRFEMPFSVEAEIPPEWECKVCGAQALLVDGDGPEEKKAKPARTHWDMLMERRTREELEEVLEERLAVLRSGAMNIAVHPRDSRKSA
binding result [1]: binds
binding result [2]: binds
binding result [3]: binds
stoichiometry N [4]: 2
